A value given as a limit tells only on which side of the number the result lay.

The results in this text go back to patent US20260263521A1 (AIMED BIO, published 2026).

For test [1], the target named is T1, human CD200R1 expressed on cells (Jurkat-CD200R1, U937-CD200R1, HH cells) (human, UniProt Q8TD46 25-348).
T1 construct: whole, on cells; also called HH (CRL-2105); cell surface-expressed CD200R1
T1 sequence (looked up): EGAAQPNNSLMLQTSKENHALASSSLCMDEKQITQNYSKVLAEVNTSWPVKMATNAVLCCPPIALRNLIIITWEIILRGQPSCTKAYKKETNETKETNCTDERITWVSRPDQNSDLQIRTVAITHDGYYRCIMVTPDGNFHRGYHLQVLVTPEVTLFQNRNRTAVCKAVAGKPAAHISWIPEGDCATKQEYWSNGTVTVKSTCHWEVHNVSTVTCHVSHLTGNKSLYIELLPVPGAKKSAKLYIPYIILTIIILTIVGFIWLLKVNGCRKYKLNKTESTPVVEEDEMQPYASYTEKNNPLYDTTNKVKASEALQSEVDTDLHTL
Description: flow cytometry on Jurkat-CD200R1 and HH cells, 500 nM antibody in IgG1 form. A digest of the protocol:
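Cells at 1×10⁵ per well incubated with antibody 1 h at 4 °C, then Alexa-647 anti-human IgG (H+L) secondary for 30 min at 4 °C. After two washes, binding read by flow cytometry.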

The target in test [2] is T2, human CD200R1 with dual His-tags (human, UniProt Q8TD46 25-265).
T2 construct: Captured on the SPR chip by an anti-histidine antibody; also called hCD200R1-his; not shown: dual His-tags
T2 sequence (looked up): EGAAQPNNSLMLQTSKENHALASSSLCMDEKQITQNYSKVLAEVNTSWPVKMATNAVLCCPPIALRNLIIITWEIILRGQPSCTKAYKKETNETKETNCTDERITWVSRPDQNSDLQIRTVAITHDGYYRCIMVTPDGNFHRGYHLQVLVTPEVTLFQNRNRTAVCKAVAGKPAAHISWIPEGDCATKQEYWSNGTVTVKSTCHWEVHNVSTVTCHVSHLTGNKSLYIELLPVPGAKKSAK
Description: SPR (Biacore CM5), His-tagged antigen captured by anti-histidine antibody, antibody as analyte, 1:1 Langmuir fit. The method, then: (§1) For the experiment, 30 μg/mL of an anti-histidine antibody was conjugated to a CM5 biacore chip via an amine bond while allowing to flow at 10 μl/min (10,000 RU). Then, 0.25 μg/mL of human or cynomolgus CD200R1 with dual His-tags was captured onto the completed chip for 60 seconds, and the binding ability of each antibody was analyzed. All experiments were performed by association of antibodies for 120 seconds and dissociation of antibodies for 600 seconds. The resulting graphs were fitted using a 1:1 Langmuir binding kinetic model (FIG. 16), and the kinetics of each antibody were calculated.

The target in test [3] is T3, cynomolgus CD200R1 with dual His-tags (cynomolgus, UniProt G7NZT0 25-266).
T3 construct: Captured on the SPR chip by an anti-histidine antibody; also called CCD200R1-his; cCD200R1-his; not shown: dual His-tags
T3 sequence: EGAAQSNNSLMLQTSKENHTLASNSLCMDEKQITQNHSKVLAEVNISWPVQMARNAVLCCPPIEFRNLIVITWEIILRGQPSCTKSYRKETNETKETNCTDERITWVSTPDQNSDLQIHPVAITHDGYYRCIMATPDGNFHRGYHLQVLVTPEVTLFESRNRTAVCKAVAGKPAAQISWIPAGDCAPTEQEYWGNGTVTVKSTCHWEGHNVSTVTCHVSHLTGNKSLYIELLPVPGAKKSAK
The description is as above. The protocol:
as §1

The target in test [4] is T4, human CD200RLa (Sino Biological, 11620-H08H) recombinant protein (human, UniProt Q6Q8B3 24-239).
T4 construct: Bought; construct not described
T4 sequence (looked up): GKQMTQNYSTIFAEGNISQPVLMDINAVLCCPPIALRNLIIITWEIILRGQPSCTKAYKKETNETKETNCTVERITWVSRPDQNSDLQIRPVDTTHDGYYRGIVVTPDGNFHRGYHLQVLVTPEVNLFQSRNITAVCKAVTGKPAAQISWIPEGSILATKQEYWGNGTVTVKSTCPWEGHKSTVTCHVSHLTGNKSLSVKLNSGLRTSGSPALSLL
Description: ELISA, plate-bound human CD200RLa (2 ug/mL), antibody 0.0192-300 nM, O.D 450 nm; panel 'recombinant human CD200RLa'. A digest of the protocol:
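Plates coated overnight (16 h, 4° C) with human or cynomolgus CD200RLa recombinant protein, blocked with 3% skim milk; bound antibody detected by TMB colour development, reaction stopped before reading.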

The target in test [5] is T5, monkey CD200R1 (ELISA antigen of Example 14) (monkey).
T5 chain: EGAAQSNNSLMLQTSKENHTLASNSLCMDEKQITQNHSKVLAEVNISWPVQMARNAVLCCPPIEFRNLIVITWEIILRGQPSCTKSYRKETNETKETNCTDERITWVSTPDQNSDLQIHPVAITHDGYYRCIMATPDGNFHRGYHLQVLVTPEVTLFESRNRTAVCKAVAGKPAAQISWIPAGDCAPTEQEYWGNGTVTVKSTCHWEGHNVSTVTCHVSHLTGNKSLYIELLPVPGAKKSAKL
The experiment in a line: ELISA on monkey CD200R1, normalized absorbance at 450 nm, 0.0192-300 nM; panel 'Cyno CD200R1'.

In test [6] the target is T1, human CD200R1 expressed on cells …. Description: cell-based or functional assay.

B1: P001009 (IgG) (antibody, V domains shown)
VH: EVQLLESGGGLVQPGGSLRLSCAASGFTFSSYDMSWVRQAPGKGLEWVSWISHGGGSIYYADSVKGRFTISRDNSKNTLYLQMNSLRAEDTAVYYCARDAPAYSAPLFDYWGQGTLVTVSS
VL: QSVLTQPPSASGTPGQRVTISCSGSSSNIGNNAVNWYQQLPGTAPKLLIYYDSNRPSGVPDRFSGSKSGTSASLAISGLRSEDEADYYCAAWDDSLSGYVFGGGTKLTVL
notes: also called P001009 WT; P001009 wt
Consider B1, for which the “MFI normalized to P001017 (chimeric OX108), %” value in test [1] is more than 50%. In test [2], binding was put at a Kd of 0.0475 nM, the koff came out at 0.000134 s⁻¹ and the kon amounted to 2.81e+06 M⁻¹ s⁻¹. In test [3], this molecule had a Kd of 2.08 nM, a koff of 0.0117 s⁻¹ and a kon of 5.63e+06 M⁻¹ s⁻¹. Moreover, the binding result in test [4] is on record as “no binding (tested: 300 nM)”. The “EC50 (read off the curve)” value in test [5] is approximately 5 nM. In test [6], the “IC50 (nM) of IL-6 inhibition, LPS-treated U937-CD200R1 cells” value worked out at 0.35 nM and the “IC50 (nM) of TNF-α inhibition, LPS-treated U937-CD200R1 cells” value was found to be 0.62 nM.
